Assay results: US20130189284A1 (TECHNION RESEARCH AND DEVELOPMENT FOUNDATION, published 2013)

Legend:
[1] = biological target: HA307-319 peptide ([…]), alone; assay: ELISA, immobilized peptide
[2] = biological target: DR4/HA307-319 complex presented on cells (human, UniProt P01903 26-254; P01911 30-266); assay: flow cytometry on peptide-loaded Preiss cells

B1: G1H12 Fab (Anti HLA-DR4/GAD555-567 Fab) (Fab, V domains shown)
VH: QVQLVQSGAEVKKPGASVKVSCKASGYTFTSYGISWVRQAPGQGLEWMGGIIPIFGTANYAQKFQGRVTITADKSTSTAYMELSSLRSEDTAVYYCARDPQSYYYDSSGFDYWGQGTLVTVSS
VL: QSVLTQPPSVSAAPGQKVTISCSGSSSNIGNNYVSWYQQLPGTAPKLLIYDNNKRPSGIPDRFSGSKSGTSATLGITGLQTGDEADYYCGTWDSSLSVWVFGGGTKLTVLG
**Q.** Does B1 bind [1]?
**A.** no binding (tested: 5 µg/ml soluble purified Fab)

**Q.** Does B1 bind [2]?
**A.** no binding (tested: 1-5 µg of specific Fab per 10^6 cells)

B2: G3H8 Fab (Anti HLA-DR4/GAD555-567 Fab) (Fab, V domains shown)
VH: QVQLVQSGAEVKKPGASVKVSCKASGYTFTTYGISWVRQAPGQGLEWMGWISAYNGHTNYAQMLQGRVTMTTDTSTSTAYMELRGLRSDDTAVYYCAREAYASYGSGSYWTDYWGQGTLVTVSS
VL: ETTLTQSPATLSVSPGERVTLSCRASQSVGSNLAWYQQKFGQAPRLLIYDASTRATGIPARFSGSGSGTEFTLTISRLEPEDFAVYYCHQYGSSPRTFGQGTKVDIKR
notes: also called Fab G3H8; G3H8 TCRL Fab
**Q.** Does B2 bind [1]?
**A.** no binding (tested: 5 µg/ml soluble purified Fab)

**Q.** Does B2 bind [2]?
**A.** no binding (tested: 1-5 µg of specific Fab per 10^6 cells)
